Test results from paper PMC6375650 (2019).
Residue numbers refer to the chain shown, from its start. Names and notes keep the numbering of the source.

B1: H7.5 Fab H-M73R (Fab, V domains shown)
VH: QVQLVQSGAEVKKPGASVKVSCKASGYTLTRYYFHWVRQAPGQGFEWMGIINPNGGGTSYAQKFGDRVIMTSDRSTSTIYMELSSLRSEDTAVYYCARDMPYYHDSGGPLFDLWGQGTLVTVSS
VL: EIVMTQSPSSLSASVGDRVTITCRPSQSISTFLNWYEQKPGKAPKLLIYDASSLQSGVPSRFSGSGSGTEFTLTISSLQPEDFATYYCQQSFSTPYTFGQGTRLEIK
B2: H7.5 Fab H-S74K (Fab, V domains shown)
VH: B1 VH with R74M, S75K
VL: B1 VL
B3: H7.5 Fab L-T94Q (Fab, V domains shown)
VH: B1 VH with R74M
VL: B1 VL with T94Q
B4: H7.5 Fab L-Y96A (Fab, V domains shown)
VH: B1 VH with R74M
VL: B1 VL with Y96A
B5: H7.5 Fab H-T57A (Fab, V domains shown)
VH: B1 VH with T58A, R74M
VL: B1 VL
B6: H7.5 Fab H-S58W (Fab, V domains shown)
VH: B1 VH with S59W, R74M
VL: B1 VL

Target: H7 Sh2 HA (A/Shanghai/2/2013), ectodomain trimer, cleavage state not stated (influenza A virus (A/Shanghai/2/2013))
Assay: BLI

| Binder | Kd [nM] |
| --- | --- |
| B1 | < 0.1 |
| B2 | < 0.1 |
| B3 | > 1000 |
| B4 | 549 |
| B5 | 116 |
| B6 | > 1000 |
